T1: HucR (Deinococcus radiodurans, UniProt Q9RV71)
T1 sequence (Q9RV71 1-181): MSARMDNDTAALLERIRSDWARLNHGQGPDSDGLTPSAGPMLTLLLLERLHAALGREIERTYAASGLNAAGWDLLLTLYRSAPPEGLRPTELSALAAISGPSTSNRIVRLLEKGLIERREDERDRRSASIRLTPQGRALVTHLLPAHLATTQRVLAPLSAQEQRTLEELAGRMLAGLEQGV

T2: AvaR1 (Streptomyces avermitilis, UniProt Q82H41 1-234)
T2 sequence: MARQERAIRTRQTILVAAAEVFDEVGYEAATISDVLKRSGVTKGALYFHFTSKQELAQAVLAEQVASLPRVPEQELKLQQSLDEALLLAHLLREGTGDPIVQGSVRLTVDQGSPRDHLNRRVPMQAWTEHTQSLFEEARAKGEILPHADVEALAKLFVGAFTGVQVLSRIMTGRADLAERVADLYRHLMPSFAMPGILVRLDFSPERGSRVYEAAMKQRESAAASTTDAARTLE

B1: DNAAvaR1-0 (dsDNA)
DNA 1: CGCAAGAGGGACTTGAAGACAAAACCGTCTAGTACGTATCTTTGACCTCCAGCTCTTCC
DNA 2: GGAAGAGCTGGAGGTCAAAGATACGTACTAGACGGTTTTGTCTTCAAGTCCCTCTTGCG
B2: DNAAvaR1-9 (dsDNA)
DNA 1: CGCAAGAGGGACTTGAAGACAAAACCGTCTAGTACGTATCTTTGACCTCCAGCTCTTCC
DNA 2: GGAAGAGCTGGAGGTCAAAGATAC
DNA 3: GTACTAGACGGTTTTGTCTTCAAGTCCCTCTTGCG
modifications: nick in bottom strand
B3: DNAAvaR1-2 (dsDNA)
DNA 1: CGCAAGAGGGACTTGAAGACAAAACCGTCTAGTACGTATCTTTGACCTCCAGCTCTTCC
DNA 2: GGAAGAGCTGGAGGTCAAAGATACGTACTAGACGGTTT
DNA 3: TGTCTTCAAGTCCCTCTTGCG
modifications: nick in bottom strand
B4: DNAAvaR1-4 (dsDNA)
DNA 1: CGCAAGAGGGACTTGAAGACAAAACCGTCTAGTACGTATCTTTGACCTCCAGCTCTTCC
DNA 2: GGAAGAGCTGGAGGTCAAAGATACGTACTAGACG
DNA 3: GTTTTGTCTTCAAGTCCCTCTTGCG
modifications: nick in bottom strand
B5: DNAAvaR1-5 (dsDNA)
DNA 1: CGCAAGAGGGACTTGAAGACAAAACCGTCTAGTACGTATCTTTGACCTCCAGCTCTTCC
DNA 2: GGAAGAGCTGGAGGTCAAAGATACGTACTAGA
DNA 3: CGGTTTTGTCTTCAAGTCCCTCTTGCG
modifications: nick in bottom strand
B6: DNAAvaR1-7 (dsDNA)
DNA 1: CGCAAGAGGGACTTGAAGACAAAACCGTCTAGTACGTATCTTTGACCTCCAGCTCTTCC
DNA 2: GGAAGAGCTGGAGGTCAAAGATACGTAC
DNA 3: TAGACGGTTTTGTCTTCAAGTCCCTCTTGCG
modifications: nick in bottom strand
B7: DNAAvaR1-8 (dsDNA)
DNA 1: CGCAAGAGGGACTTGAAGACAAAACCGTCTAGTACGTATCTTTGACCTCCAGCTCTTCC
DNA 2: GGAAGAGCTGGAGGTCAAAGATACGT
DNA 3: ACTAGACGGTTTTGTCTTCAAGTCCCTCTTGCG
modifications: nick in bottom strand
B8: DNAAvaR1-12 (dsDNA)
DNA 1: CGCAAGAGGGACTTGAAGACAAAACCGTCTAGTACGTATCTTTGACCTCCAGCTCTTCC
DNA 2: GGAAGAGCTGGAGGTCAA
DNA 3: AGATACGTACTAGACGGTTTTGTCTTCAAGTCCCTCTTGCG
modifications: nick in bottom strand
B9: DNAAvaR1-1 (dsDNA)
DNA 1: CGCAAGAGGGACTTGAAGACAAAACCGTCTAGTACGTATCTTTGACCTCCAGCTCTTCC
DNA 2: GGAAGAGCTGGAGGTCAAAGATACGTACTAGACGGTTTTG
DNA 3: TCTTCAAGTCCCTCTTGCG
modifications: nick in bottom strand
B10: DNAAvaR1-6 (dsDNA)
DNA 1: CGCAAGAGGGACTTGAAGACAAAACCGTCTAGTACGTATCTTTGACCTCCAGCTCTTCC
DNA 2: GGAAGAGCTGGAGGTCAAAGATACGTACTA
DNA 3: GACGGTTTTGTCTTCAAGTCCCTCTTGCG
modifications: nick in bottom strand
B11: DNAAvaR1-10 (dsDNA)
DNA 1: CGCAAGAGGGACTTGAAGACAAAACCGTCTAGTACGTATCTTTGACCTCCAGCTCTTCC
DNA 2: GGAAGAGCTGGAGGTCAAAGAT
DNA 3: ACGTACTAGACGGTTTTGTCTTCAAGTCCCTCTTGCG
modifications: nick in bottom strand
B12: DNAAvaR1-3 (dsDNA)
DNA 1: CGCAAGAGGGACTTGAAGACAAAACCGTCTAGTACGTATCTTTGACCTCCAGCTCTTCC
DNA 2: GGAAGAGCTGGAGGTCAAAGATACGTACTAGACGGT
DNA 3: TTTGTCTTCAAGTCCCTCTTGCG
modifications: nick in bottom strand
B13: DNAAvaR1-11 (dsDNA)
DNA 1: CGCAAGAGGGACTTGAAGACAAAACCGTCTAGTACGTATCTTTGACCTCCAGCTCTTCC
DNA 2: GGAAGAGCTGGAGGTCAAAG
DNA 3: ATACGTACTAGACGGTTTTGTCTTCAAGTCCCTCTTGCG
modifications: nick in bottom strand
B14: DNATetR-0 (dsDNA)
DNA 1: CCTCCGATTTTCAGATTGACACTCTATCATTGATAGGGATATATTCCAACTCTATCAAT
DNA 2: ATTGATAGAGTTGGAATATATCCCTATCAATGATAGAGTGTCAATCTGAAAATCGGAGG
B15: DNATetR-4 (dsDNA)
DNA 1: CCTCCGATTTTCAGATTGACACTCTATCATTGATAGGGATATATTCCAACTCTATCAAT
DNA 2: ATTGATAGAGTTGGAATATATCCCTATCAATGAT
DNA 3: AGAGTGTCAATCTGAAAATCGGAGG
modifications: nick in bottom strand
B16: DNATetR-10 (dsDNA)
DNA 1: CCTCCGATTTTCAGATTGACACTCTATCATTGATAGGGATATATTCCAACTCTATCAAT
DNA 2: ATTGATAGAGTTGGAATATATCC
DNA 3: CTATCAATGATAGAGTGTCAATCTGAAAATCGGAGG
modifications: nick in bottom strand
B17: DNATetR-12 (dsDNA)
DNA 1: CCTCCGATTTTCAGATTGACACTCTATCATTGATAGGGATATATTCCAACTCTATCAAT
DNA 2: ATTGATAGAGTTGGAATAT
DNA 3: ATCCCTATCAATGATAGAGTGTCAATCTGAAAATCGGAGG
modifications: nick in bottom strand
B18: DNATetR-7 (dsDNA)
DNA 1: CCTCCGATTTTCAGATTGACACTCTATCATTGATAGGGATATATTCCAACTCTATCAAT
DNA 2: ATTGATAGAGTTGGAATATATCCCTATCA
DNA 3: ATGATAGAGTGTCAATCTGAAAATCGGAGG
modifications: nick in bottom strand
B19: DNATetR-5 (dsDNA)
DNA 1: CCTCCGATTTTCAGATTGACACTCTATCATTGATAGGGATATATTCCAACTCTATCAAT
DNA 2: ATTGATAGAGTTGGAATATATCCCTATCAATG
DNA 3: ATAGAGTGTCAATCTGAAAATCGGAGG
modifications: nick in bottom strand
B20: DNATetR-6 (dsDNA)
DNA 1: CCTCCGATTTTCAGATTGACACTCTATCATTGATAGGGATATATTCCAACTCTATCAAT
DNA 2: ATTGATAGAGTTGGAATATATCCCTATCAA
DNA 3: TGATAGAGTGTCAATCTGAAAATCGGAGG
modifications: nick in bottom strand
B21: DNATetR-8 (dsDNA)
DNA 1: CCTCCGATTTTCAGATTGACACTCTATCATTGATAGGGATATATTCCAACTCTATCAAT
DNA 2: ATTGATAGAGTTGGAATATATCCCTAT
DNA 3: CAATGATAGAGTGTCAATCTGAAAATCGGAGG
modifications: nick in bottom strand
B22: DNATetR-1 (dsDNA)
DNA 1: CCTCCGATTTTCAGATTGACACTCTATCATTGATAGGGATATATTCCAACTCTATCAAT
DNA 2: ATTGATAGAGTTGGAATATATCCCTATCAATGATAGAGTG
DNA 3: TCAATCTGAAAATCGGAGG
modifications: nick in bottom strand
B23: DNATetR-3 (dsDNA)
DNA 1: CCTCCGATTTTCAGATTGACACTCTATCATTGATAGGGATATATTCCAACTCTATCAAT
DNA 2: ATTGATAGAGTTGGAATATATCCCTATCAATGATAG
DNA 3: AGTGTCAATCTGAAAATCGGAGG
modifications: nick in bottom strand
B24: DNATetR-11 (dsDNA)
DNA 1: CCTCCGATTTTCAGATTGACACTCTATCATTGATAGGGATATATTCCAACTCTATCAAT
DNA 2: ATTGATAGAGTTGGAATATAT
DNA 3: CCCTATCAATGATAGAGTGTCAATCTGAAAATCGGAGG
modifications: nick in bottom strand
B25: DNATetR-9 (dsDNA)
DNA 1: CCTCCGATTTTCAGATTGACACTCTATCATTGATAGGGATATATTCCAACTCTATCAAT
DNA 2: ATTGATAGAGTTGGAATATATCCCT
DNA 3: ATCAATGATAGAGTGTCAATCTGAAAATCGGAGG
modifications: nick in bottom strand
B26: DNATetR-2 (dsDNA)
DNA 1: CCTCCGATTTTCAGATTGACACTCTATCATTGATAGGGATATATTCCAACTCTATCAAT
DNA 2: ATTGATAGAGTTGGAATATATCCCTATCAATGATAGAG
DNA 3: TGTCAATCTGAAAATCGGAGG
modifications: nick in bottom strand

Biological target: T1, HucR
Experiment: isothermal titration calorimetry
Assay type: binding
Settings: not given

Q: `O=c1[nH]c(=O)c2[nH]c(=O)[nH]c2[nH]1` [UA] was tested. Which Kd did it give?
A: 9350 ± 990 nM

Biological target: T2, AvaR1
Experiment: BLI; BLI: HBS-EP (10 mM Hepes, 15 mM NaCl, 3 mM EDTA, 0.005% Tween 20, 0.1% BSA, pH 7.4), temperature not stated; EMSA: 20 mM Tris-HCl pH 7.5, 2 mM DTT, 5 mM MgCl2
Settings: protein: recombinant; label: 5'-biotin on strand 1; blunt

Q: B1 was tested. Which Kd did it give?
A: 11.7 ± 0.028 nM

Same assay, conditions: protein: recombinant; label: 5'-biotin on strand 1; blunt, nicked 1:2 1:3

Q: Which Kd does the source give for B2 here?
A: 22.2 ± 0.245 nM

Q: With B3 as the molecule, how does the Kd read?
A: 15.1 ± 0.034 nM

Q: How did the Kd turn out when B4 was run?
A: 16 ± 0.032 nM

Q: With B5 as the molecule, how does the Kd read?
A: 14 ± 0.027 nM

Q: Which Kd does the source give for B6 here?
A: 10.8 ± 0.03 nM

Q: B7 was tested. Which Kd did it give?
A: 14.1 ± 0.025 nM

Q: B8 was tested. Which Kd did it give?
A: 8.33 ± 0.015 nM

Q: With B9 as the molecule, how does the Kd read?
A: 18.3 ± 0.052 nM

Q: For B10, which Kd is on record?
A: 12.6 ± 0.021 nM

Q: For B11, which Kd is on record?
A: 11 ± 0.026 nM

Q: B12 was tested. Which Kd did it give?
A: 17 ± 0.052 nM

Q: For B13, which Kd is on record?
A: 13 ± 0.027 nM

Biological target: TetR (Escherichia coli, UniProt P04483 1-207)
Experiment: as above
Settings: protein: recombinant; chain copies: 2; label: 5'-biotin on strand 1; blunt

Chain of TetR (P04483 whole entry): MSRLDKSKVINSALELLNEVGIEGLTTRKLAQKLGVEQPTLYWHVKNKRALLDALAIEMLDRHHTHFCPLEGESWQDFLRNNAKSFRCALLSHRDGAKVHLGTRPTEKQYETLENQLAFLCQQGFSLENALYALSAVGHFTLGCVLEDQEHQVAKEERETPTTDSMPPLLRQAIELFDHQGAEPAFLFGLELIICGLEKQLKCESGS

Q: For B14, which Kd is on record?
A: 1.08 ± 0.06 nM

Same assay, conditions: protein: recombinant; chain copies: 2; label: 5'-biotin on strand 1; blunt, nicked 1:2 1:3

Q: For B15, which Kd is on record?
A: 1.89 ± 0.07 nM

Q: How did the Kd turn out when B16 was run?
A: 1.22 ± 0.03 nM

Q: How did the Kd turn out when B17 was run?
A: 1.1 ± 0.05 nM

Q: How did the Kd turn out when B18 was run?
A: 1.85 ± 0.06 nM

Q: For B19, which Kd is on record?
A: 1.91 ± 0.03 nM

Q: Which Kd does the source give for B20 here?
A: 2 ± 0.59 nM

Q: B21 was tested. Which Kd did it give?
A: 1.52 ± 0.044 nM

Q: Which Kd does the source give for B22 here?
A: 1.3 ± 0.04 nM

Q: For B23, which Kd is on record?
A: 1.72 ± 0.11 nM

Q: Which Kd does the source give for B24 here?
A: 1.58 ± 0.04 nM

Q: For B25, which Kd is on record?
A: 0.67 ± 0.03 nM

Q: B26 was tested. Which Kd did it give?
A: 1.78 ± 0.07 nM

Biological target: HosA (Escherichia coli, UniProt Q7ABA6)
Experiment: isothermal titration calorimetry
Assay type: binding
Settings: not given

Chain of HosA (Q7ABA6 whole entry, looked up): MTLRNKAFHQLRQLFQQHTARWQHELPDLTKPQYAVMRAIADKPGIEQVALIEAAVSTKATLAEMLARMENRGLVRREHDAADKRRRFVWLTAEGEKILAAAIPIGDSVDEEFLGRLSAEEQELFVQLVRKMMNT

Q: How did the Kd turn out when `O=C(O)c1ccc(O)cc1` [4-HBA] was run?
A: 4740 ± 250 nM

— article PMC6261655, “Harnessing a previously unidentified capability of bacterial allosteric transcription factors for sensing diverse small molecules in vitro” (Science Advances, 2018)
